The values below come from PMC10877986 (mAbs, 2024).

Experiment in all cases: SPR
(In general: Surface plasmon resonance follows binding to a sensor surface in real time, without labels.)

One assay deals with recombinant mouse PD-1 (Mus musculus, UniProt Q02242).
The target in assay [1] is T1, recombinant human PD-1 (Homo sapiens, UniProt Q15116).
Assay [2] concerns the target recombinant cynomolgus monkey PD-1 (Macaca fascicularis (cynomolgus monkey), UniProt B0LAJ3).
In assay [3] the target is T1, recombinant human PD-1. This is another data set of the same source.

Substitutions are numbered along the chain they refer to. Read-outs that look alike come from different tables or passages of the source.

T1 sequence (Q15116 25-170): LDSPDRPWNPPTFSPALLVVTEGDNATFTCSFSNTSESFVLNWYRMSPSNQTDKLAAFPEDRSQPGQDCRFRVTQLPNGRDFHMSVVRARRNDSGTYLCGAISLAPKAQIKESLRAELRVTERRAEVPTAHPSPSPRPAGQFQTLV
recombinant mouse PD-1, sequence (Q02242 25-169): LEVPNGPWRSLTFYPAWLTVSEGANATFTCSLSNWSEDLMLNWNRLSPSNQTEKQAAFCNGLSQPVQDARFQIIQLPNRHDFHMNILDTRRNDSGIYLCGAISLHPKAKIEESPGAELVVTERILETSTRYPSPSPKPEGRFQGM

B1: h1340.CC (antibody, V domains shown)
VH: EQQLVESGGGVVQPGRSLRLSCAASGFSFSSTYWICWVRQAPGKGLEWIACIYAGSSGNTYYANWAKGRFTISKDSSSTTVFLQMNSLRAEDTAVYFCARAGGAGGGVYTLTRLDLWGQGTLVTVSS
VL: AAQLTQSPSSLSASVGDRVTITCQSSQSVYNNNDLAWYQQKPGKPPKLLIYTPSSLTSGVPSRFSGSGSGTDFTLTISSLQPEDFATYYCLGGYDDDSDNAFGGGTKVEIK
B1: the dissociation constant Kd with recombinant mouse PD-1 came to 1.72 nM; with recombinant human PD-1 [1], 0.3 nM; in assay [2], 0.42 nM; with recombinant human PD-1 [3], 0.1 nM.

B2: h1340.SA (antibody, V domains shown)
VH: B1 VH with C36S, C51A
VL: B1 VL
B2: the “fold decrease in affinity against h1340.CC” value with recombinant mouse PD-1 was about 4 fold; with recombinant human PD-1 [1] it was about 2.5 fold. The “fold decrease in affinity against rbt1340” value in the assay with recombinant human PD-1 [1] was found to be 4 fold; in assay [2], 6 fold. Moreover, in the assay with recombinant human PD-1 [3], the Kd worked out at 0.7 nM.

B3: h1340.AA (antibody, V domains shown)
VH: B1 VH with C36A, C51A
VL: B1 VL
In the case of B3, the binding result with recombinant human PD-1 [3] was “binds”.

B4: h1340.SA.6 (antibody, V domains shown)
VH: B1 VH with C36S, C51A, A101S
VL: B1 VL
For the molecule B4, the binding result with recombinant human PD-1 [3] is “binds”.

B5: h1340.SA.3 (antibody, V domains shown)
VH: B1 VH with S30D, C36S, C51A
VL: B1 VL
Regarding B5, the binding result with recombinant human PD-1 [3] is “binds”.

B6: h1340.SA.5 (antibody, V domains shown)
VH: B1 VH with C36S, C51A, A54L
VL: B1 VL
As for B6, the binding result in the assay with recombinant human PD-1 [3] is “binds”.

What is called Kd is the constant that tells how readily two partners part at equilibrium.
